Measurements reported in patent US12060424 (AMUNIX PHARMACEUTICALS, dated 2024).
Changes are numbered by the printed parent chain. One block for each binder: values may come before it.

Key:
[1] = target: T1, human EpCAM expressed on cells (CHO cells stably transfected with human EpCAM); EpCAM-positive human tumor … (human, UniProt P16422 24-314); assay: cell-based or functional assay
T1 sequence (looked up): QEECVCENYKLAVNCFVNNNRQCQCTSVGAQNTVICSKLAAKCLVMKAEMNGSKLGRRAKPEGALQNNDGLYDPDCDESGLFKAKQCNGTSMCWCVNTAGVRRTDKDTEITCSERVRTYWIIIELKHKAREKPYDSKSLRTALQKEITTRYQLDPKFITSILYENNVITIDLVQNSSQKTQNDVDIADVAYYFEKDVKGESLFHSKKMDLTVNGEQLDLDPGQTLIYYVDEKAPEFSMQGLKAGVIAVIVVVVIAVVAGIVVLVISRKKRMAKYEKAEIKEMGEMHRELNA

[2] = target: recombinant human CD3 epsilon & delta (rhCD3ε & δ), Creative BioMart cat #CD3E&CD3D-219H (human) (UniProt P07766); assay: sandwich ELISA: rhCD3ε & δ coated, biotinylated anti-XTEN antibody detection
recombinant human CD3 epsilon & delta (rhCD3ε & δ), Creative BioMart cat #CD3E&CD3D-219H (human), sequence (P07766 23-126, stated change not applied, chain 1 of 2): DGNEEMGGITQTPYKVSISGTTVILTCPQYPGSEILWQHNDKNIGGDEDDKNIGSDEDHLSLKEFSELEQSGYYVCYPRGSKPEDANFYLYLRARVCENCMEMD
recombinant human CD3 epsilon & delta (rhCD3ε & δ), Creative BioMart cat #CD3E&CD3D-219H (human), sequence (P04234 22-105, stated change not applied, chain 2 of 2, further chain): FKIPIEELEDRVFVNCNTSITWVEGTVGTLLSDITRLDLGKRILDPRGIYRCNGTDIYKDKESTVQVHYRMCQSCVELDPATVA

- EC50 [2]: 0.03 µg/mL
B1: AC1714 protease-untreated anti-EpCAM×anti-CD3 ProTIA (bispecific antibody)
chain: DIQMTQSPSSLSASVGDRVTITCRSTKSLLHSNGITYLYWYQQKPGKAPKLLIYQMSNLASGVPSRFSSSGSGTDFTLTISSLQPEDFATYYCAQNLEIPRTFGQGTKVEIKGATPPETGAETESPGETTGGSAESEPPGEGQVQLVQSGPGLVQPGGSVRISCAASGYTFTNYGMNWVKQAPGKGLEWMGWINTYTGESTYADSFKGRFTFSLDTSASAAYLQINSLRAEDTAVYYCARFAIKGDYWGQGTLLTVSSGGGGSDIQMTQSPSSLSASVGDRVTITCRASQDIRNYLNWYQQKPGKAPKLLIYYTSRLESGVPSRFSGSGSGTDYTLTISSLQPEDFATYYCQQGNTLPWTFGQGTKVEIKGATPPETGAETESPGETTGGSAESEPPGEGEVQLVESGGGLVQPGGSLRLSCAASGYSFTGYTMNWVRQAPGKGLEWVALINPYKGVSTYNQKFKDRFTISVDKSKNTAYLQMNSLRAEDTAVYYCARSGYYGDSDWYFDVWGQGTLVTVSSGTAEAASASGEAGRSANHTPAGLTGPPGSPAGSPTSTEEGTSESATPESGPGTSTEPSEGSAPGSPAGSPTSTEEGTSTEPSEGSAPGTSTEPSEGSAPGTSESATPESGPGSEPATSGSETPGSEPATSGSETPGSPAGSPTSTEEGTSESATPESGPGTSTEPSEGSAPGTSTEPSEGSAPGSPAGSPTSTEEGTSTEPSEGSAPGTSTEPSEGSAPGTSESATPESGPGTSTEPSEGSAPGTSESATPESGPGSEPATSGSETPGTSTEPSEGSAPGTSTEPSEGSAPGTSESATPESGPGTSESATPESGPGSPAGSPTSTEEGTSESATPESGPGSEPATSGSETPGTSESATPESGPGTSTEPSEGSAPGTSTEPSEGSAPGTSTEPSEGSAPGTSTEPSEGSAPGTSTEPSEGSAPGTSTEPSEGSAPGSPAGSPTSTEEGTSTEPSEGSAPGTSESATPESGPGSEPATSGSETPGTSESATPESGPGSEPATSGSETPGTSESATPESGPGTSTEPSEGSAPGTSESATPESGPGSPAGSPTSTEEGSPAGSPTSTEEGSPAGSPTSTEEGTSESATPESGPGTSTEPSEGSAPGTSESATPESGPGSEPATSGSETPGTSESATPESGPGSEPATSGSETPGTSESATPESGPGTSTEPSEGSAPGSPAGSPTSTEEGTSESATPESGPGSEPATSGSETPGTSESATPESGPGSPAGSPTSTEEGSPAGSPTSTEEGTSTEPSEGSAPGTSESATPESGPGTSESATPESGPGTSESATPESGPGSEPATSGSETPGSEPATSGSETPGSPAGSPTSTEEGTSTEPSEGSAPGTSTEPSEGSAPGSEPATSGSETPGTSESATPESGPGTSTEPSEGSAPGHHHHHH
- EC50 (pM), caspase 3/7 cytotoxicity, PBMC with HCT-116 cells 10:1 [1]: 52 pM
- EC50 (pM), caspase 3/7 cytotoxicity, PBMC with HPAF-II cells 10:1 [1]: 20 pM
- EC50 (pM), caspase 3/7 cytotoxicity, PBMC with MDA-MB-231 cells 10:1 [1]: 1740 pM

- EC50 [2]: 0.034 µg/mL
B2: AC1715 protease-untreated anti-EpCAM×anti-CD3 ProTIA (bispecific antibody)
chain: B1 chain with A534S, S537A, H540T
- EC50 (pM), caspase 3/7 cytotoxicity, PBMC with HCT-116 cells 10:1 [1]: 20 pM
- EC50 (pM), caspase 3/7 cytotoxicity, PBMC with HPAF-II cells 10:1 [1]: 14 pM
- EC50 (pM), caspase 3/7 cytotoxicity, PBMC with MDA-MB-231 cells 10:1 [1]: 1190 pM

- EC50 [2]: 0.009 µg/mL
- fold more active binding than the non-cleavable AC1484 [2]: 3 fold
B3: AC1693 protease-untreated anti-EpCAM×anti-CD3 ProTIA (bispecific antibody)
chain: DIQMTQSPSSLSASVGDRVTITCRSTKSLLHSNGITYLYWYQQKPGKAPKLLIYQMSNLASGVPSRFSSSGSGTDFTLTISSLQPEDFATYYCAQNLEIPRTFGQGTKVEIKGATPPETGAETESPGETTGGSAESEPPGEGQVQLVQSGPGLVQPGGSVRISCAASGYTFTNYGMNWVKQAPGKGLEWMGWINTYTGESTYADSFKGRFTFSLDTSASAAYLQINSLRAEDTAVYYCARFAIKGDYWGQGTLLTVSSGGGGSDIQMTQSPSSLSASVGDRVTITCRASQDIRNYLNWYQQKPGKAPKLLIYYTSRLESGVPSRFSGSGSGTDYTLTISSLQPEDFATYYCQQGNTLPWTFGQGTKVEIKGATPPETGAETESPGETTGGSAESEPPGEGEVQLVESGGGLVQPGGSLRLSCAASGYSFTGYTMNWVRQAPGKGLEWVALINPYKGVSTYNQKFKDRFTISVDKSKNTAYLQMNSLRAEDTAVYYCARSGYYGDSDWYFDVWGQGTLVTVSSGTAEAASASGESGRAANHTGAPPGGLTGPPGSPAGSPTSTEEGTSESATPESGPGTSTEPSEGSAPGSPAGSPTSTEEGTSTEPSEGSAPGTSTEPSEGSAPGTSESATPESGPGSEPATSGSETPGSEPATSGSETPGSPAGSPTSTEEGTSESATPESGPGTSTEPSEGSAPGTSTEPSEGSAPGSPAGSPTSTEEGTSTEPSEGSAPGTSTEPSEGSAPGTSESATPESGPGTSTEPSEGSAPGTSESATPESGPGSEPATSGSETPGTSTEPSEGSAPGTSTEPSEGSAPGTSESATPESGPGTSESATPESGPGSPAGSPTSTEEGTSESATPESGPGSEPATSGSETPGTSESATPESGPGTSTEPSEGSAPGTSTEPSEGSAPGTSTEPSEGSAPGTSTEPSEGSAPGTSTEPSEGSAPGTSTEPSEGSAPGSPAGSPTSTEEGTSTEPSEGSAPGTSESATPESGPGSEPATSGSETPGTSESATPESGPGSEPATSGSETPGTSESATPESGPGTSTEPSEGSAPGTSESATPESGPGSPAGSPTSTEEGSPAGSPTSTEEGSPAGSPTSTEEGTSESATPESGPGTSTEPSEGSAPGTSESATPESGPGSEPATSGSETPGTSESATPESGPGSEPATSGSETPGTSESATPESGPGTSTEPSEGSAPGSPAGSPTSTEEGTSESATPESGPGSEPATSGSETPGTSESATPESGPGSPAGSPTSTEEGSPAGSPTSTEEGTSTEPSEGSAPGTSESATPESGPGTSESATPESGPGTSESATPESGPGSEPATSGSETPGSEPATSGSETPGSPAGSPTSTEEGTSTEPSEGSAPGTSTEPSEGSAPGSEPATSGSETPGTSESATPESGPGTSTEPSEGSAPGHHHHHH
- EC50 (pM), caspase 3/7 cytotoxicity, PBMC with HCT-116 cells 10:1 [1]: 21 pM
- EC50 (pM), caspase 3/7 cytotoxicity, PBMC with HPAF-II cells 10:1 [1]: 12 pM
- EC50 (pM), caspase 3/7 cytotoxicity, PBMC with MDA-MB-231 cells 10:1 [1]: 3480 pM
